Consider 1 substance from paper PMC6150654.

This assay has as its target Human PTH1 receptor with a His-tag (human) (UniProt Q03431). As to the kind of experiment: QCM biosensor; PTH1R amine coupled to an LNB-carboxyl chip (Attana Cell 200); PTH injected at 4-20 ug/mL, 35 uL, 25 uL/min, dissociation 510 s; 20 °C; 10 mM HEPES, 150 mM NaCl, 0.005% Tween-20, pH 7.4; rate constant distributions (AIDA) and two-site model fitted to the sensorgrams one by one.
UniProt Q03431, sequence (Q03431 27-593): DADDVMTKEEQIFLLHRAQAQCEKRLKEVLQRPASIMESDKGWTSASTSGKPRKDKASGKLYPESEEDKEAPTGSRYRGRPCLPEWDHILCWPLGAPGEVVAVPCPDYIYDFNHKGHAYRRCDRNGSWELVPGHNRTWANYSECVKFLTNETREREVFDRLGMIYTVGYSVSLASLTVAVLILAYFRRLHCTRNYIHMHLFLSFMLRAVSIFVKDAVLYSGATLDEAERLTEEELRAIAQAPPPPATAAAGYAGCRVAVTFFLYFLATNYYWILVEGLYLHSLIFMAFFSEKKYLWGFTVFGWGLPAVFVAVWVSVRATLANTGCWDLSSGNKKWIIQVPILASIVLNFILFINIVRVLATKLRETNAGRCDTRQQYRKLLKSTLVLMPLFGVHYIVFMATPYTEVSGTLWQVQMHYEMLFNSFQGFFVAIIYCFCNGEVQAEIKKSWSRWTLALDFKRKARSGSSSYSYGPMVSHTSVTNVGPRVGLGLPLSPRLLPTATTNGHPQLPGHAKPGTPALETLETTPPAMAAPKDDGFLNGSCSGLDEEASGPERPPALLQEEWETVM

Take parathyroid hormone (1-34) (peptide): the log10(ka), both distributions of the RCD (4129 nM injection) came to 4; the log10(ka), first cluster (two-site fit) was determined as 4.2; the log10(ka), second cluster (two-site fit) amounted to 3.7; the log10(kd), first cluster (two-site fit) is -0.9. In addition, the log10(kd), one distribution of the RCD (4129 nM injection) was -2; the log10(kd), other distribution of the RCD (4129 nM injection) was -1; the log10(kd), second cluster (two-site fit) was -2.3.
